According to PMC11861591:

B1: Flag-tagged RhoC (wild type), P08134 F154A; L157A (protein)
chain: MAAIRKKLVIVGDGACGKTCLLIVFSKDQFPEVYVPTVFENYIADIEVDGKQVELALWDTAGQEDYDRLRPLSYPDTDVILMCFSIDSPDSLENIPEKWTPEVKHFCPNVPIILVGNKKDLRQDEHTRRELAKMKQEPVRSEEGRDMANRISAAGYAECSAKTKEGVREVFEMATRAGLQVRKNKRRRGCPIL
B2: Flag-tagged RhoC (wild type), P08134 F30A; V33A (protein)
chain: MAAIRKKLVIVGDGACGKTCLLIVFSKDQAPEAYVPTVFENYIADIEVDGKQVELALWDTAGQEDYDRLRPLSYPDTDVILMCFSIDSPDSLENIPEKWTPEVKHFCPNVPIILVGNKKDLRQDEHTRRELAKMKQEPVRSEEGRDMANRISAFGYLECSAKTKEGVREVFEMATRAGLQVRKNKRRRGCPIL
B3: Flag-tagged RhoC (wild type), P08134 Y66A; L69A; F154A; L157A (protein)
chain: MAAIRKKLVIVGDGACGKTCLLIVFSKDQFPEVYVPTVFENYIADIEVDGKQVELALWDTAGQEDADRARPLSYPDTDVILMCFSIDSPDSLENIPEKWTPEVKHFCPNVPIILVGNKKDLRQDEHTRRELAKMKQEPVRSEEGRDMANRISAAGYAECSAKTKEGVREVFEMATRAGLQVRKNKRRRGCPIL
B4: Flag-tagged RhoC (wild type), P08134 Y66A; L69A (protein)
chain: MAAIRKKLVIVGDGACGKTCLLIVFSKDQFPEVYVPTVFENYIADIEVDGKQVELALWDTAGQEDADRARPLSYPDTDVILMCFSIDSPDSLENIPEKWTPEVKHFCPNVPIILVGNKKDLRQDEHTRRELAKMKQEPVRSEEGRDMANRISAFGYLECSAKTKEGVREVFEMATRAGLQVRKNKRRRGCPIL

Target: V5-LC3, Q9GZQ8
Test: co-immunoprecipitation (Flag IP), western blot band quantification
Settings: chain shown with the change; HEK293T cells expressing V5-LC3 and Flag-RhoC; n = 3; parent: est. 4.6; read off a plot; scale: relative IP LC3-II protein level

| Binder | response |
| --- | --- |
| B1 | 1.2 |
| B2 | 4.7 |
| B3 | 1 |
| B4 | 2.1 |
